From patent US20220195063A1 (BYONDIS B V, published 2022)

T1: cynomolgus SIRPα expressed on cells (cynomolgus monkey, UniProt A0A2K5VYQ9 31-507)
T1 construct: whole, on cells; also called ExpiCHO-S (cySIRPα)
T1 sequence: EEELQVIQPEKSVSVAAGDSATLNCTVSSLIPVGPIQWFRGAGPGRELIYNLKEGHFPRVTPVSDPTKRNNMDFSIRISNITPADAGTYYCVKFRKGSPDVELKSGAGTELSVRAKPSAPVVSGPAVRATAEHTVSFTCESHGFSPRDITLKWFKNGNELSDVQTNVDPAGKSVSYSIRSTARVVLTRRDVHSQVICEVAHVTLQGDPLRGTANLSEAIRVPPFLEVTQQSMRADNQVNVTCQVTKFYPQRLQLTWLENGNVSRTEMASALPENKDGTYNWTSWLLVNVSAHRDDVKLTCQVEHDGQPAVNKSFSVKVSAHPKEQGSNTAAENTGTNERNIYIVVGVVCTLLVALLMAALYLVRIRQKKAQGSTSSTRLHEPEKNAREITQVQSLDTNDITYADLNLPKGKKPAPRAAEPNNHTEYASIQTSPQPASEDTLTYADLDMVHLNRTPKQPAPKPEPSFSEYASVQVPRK

T2: cynomolgus SIRPα (cySIRPα), protein antigen (cynomolgus monkey, UniProt A0A2K5VYQ9 31-369)
T2 construct: Coated on the plate in ELISA
T2 sequence: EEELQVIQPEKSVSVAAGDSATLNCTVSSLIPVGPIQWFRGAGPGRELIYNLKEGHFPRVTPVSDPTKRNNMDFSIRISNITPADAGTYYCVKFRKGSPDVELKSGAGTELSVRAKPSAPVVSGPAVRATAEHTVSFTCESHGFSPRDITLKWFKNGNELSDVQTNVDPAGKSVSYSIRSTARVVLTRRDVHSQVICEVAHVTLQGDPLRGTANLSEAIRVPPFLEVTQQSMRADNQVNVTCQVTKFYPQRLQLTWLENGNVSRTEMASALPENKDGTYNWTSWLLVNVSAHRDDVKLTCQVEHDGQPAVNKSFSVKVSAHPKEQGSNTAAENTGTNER

B1: KWAR23 huIgG1LALA (antibody, V domains shown)
VH: EVQLQQSGAELVKPGASVKLSCTASGFNIKDYYIHWVQQRTEQGLEWIGRIDPEDGETKYAPKFQDKATITADTSSNTAYLHLSSLTSEDTAVYYCARWGAYWGQGTLVTVSS
VL: QIVLTQSPAIMSASPGEKVTLTCSASSSVSSSYLYWYQQKPGSSPKLWIYSTSNLASGVPARFSGSGSGTSYSLTISSMEAEDAASYFCHQWSSYPRTFGAGTKLELK
B2: KWAR23 mouse IgG2a (antibody, V domains shown)
VH: B1 VH
VL: B1 VL
B3: anti-SIRPα antibody 7 (antibody, human IgG1, kappa, L234A L235A, V domains shown)
VH: RSVEESGGRLVTPGTPLTLTCTVSGFSLSSHGISWVRQAPGKGLEYIGTIGTGVITYFASWAKGRFTGSKTSTTVDLKITSPTTEDTATYFCARGSAWNDPFDPWGPGTLVTVSS
VL: ALVMTQTPASVSAAVGGTVTTKCQASQSVYGNNDLAWYQHKPGQPPKLLIYLASTLATGVPSRFSGSGSGTQFTLTITGVQSDDAATYYCLGGGDDEADNVFGGGTEVVVKR
notes: Chimeric: rabbit variable regions on human IgG1 LALA / kappa; also called chimeric antibody 7
B4: anti-SIRPα antibody 2 (antibody, human IgG1, kappa, L234A L235A, V domains shown)
VH: QSVEESGGRLVTPGTPLTLTCTVSGFSLSNYAMHWVRQAPGKGLEWIGIIYTGGATSYATWAKGQFTISKTSTTVDLKITSPTTEDTATYFCARGDRDGYAYFNIWGPGTLVTVSL
VL: QIVMTQTPFSVSAVVGGTVTIKCQASHNIGSWLAWYQQKPGQRPKLLIYDASTLASGVSSRFKGSGSGTEFTLTISGVESADAATYYCQQGYGISYVHNVFGGGTEVVVKR
notes: Rabbit variable regions on human IgG1 LALA / kappa
B5: 12C4huIgG1LALA (antibody, V domains shown)
VH: EVKLEESGGGLMQPGGSMKLSCVASGFTFSNYWMNWVRQSPEKGLEWVAEIRLKSNNYATHYAESVKGRFTISRDDSKSSVYLQMNNLRAEDTGIYYCIRDYDYDAYFDYWGQGTTLTVSS
VL: DIVLTQSPASLAVSLGQRATISCRASKSVSTSGYNYMYWYQQKPGQPPKLLIYLASNLESGVPARFSGSGSGTDFTLNIHPVEEEDAATYYCQHSGELPYTFGGGTKLEIKR
notes: HAVT20 leader left out; also called 12C4LALA; huIgG112C4LALA
B6: anti-SIRPα antibody 5 (antibody, human IgG1, kappa, L234A L235A, V domains shown)
VH: QSVEESGGRLVTPGTPLTLTCTVSGFSLSSYVMGWFRQAAGKGLEYIGYINADGSPYYATWVNGRFTISKTPTTMDLKINSPTTEDTATYFCARVGPLGVDYFNIWGPGTLVTVSL
VL: DIVMTQTPASVEAAVGGTVTIKCQASQSINRYLTWYQQKPGQRPKLLIYYASTLESGVPSRFEGSGSGTDYTLTISDLESADAATYYCQSYYYISRTYAFGGGTEVVVKR
notes: as for B4
B7: anti-SIRPα antibody 8 (antibody, human IgG1, kappa, L234A L235A, V domains shown)
VH: QSLEESGGRLVTPGTPLTLTCTASGVDLSNYAMGWVRQAPGKGLEWIGIIYAGGSTSYATWAKGRFTISKTSTTMDLKMTSPTTEDTATYFCARHRSDGYDYFHLWGPGTLVTVSL
VL: AIDMTQTPASVSEPVGGTVTIKCQASQSISSWLAWYQQKPGQRPKLLIYDASKLASGVPSRFSGSGSGTEFTLTISGVQSDDAAAYYCQQGYAVSYVENIFGGGTEVVVKR
notes: as for B4

Legend:
human SIRPγ (huSIRPγ) [1] = target: T3, human SIRPγ (huSIRPγ) (human, UniProt Q9P1W8 29-360, limits assumed, biotinylated in the SPR assay); experiment: SPR, biotinylated antigen captured, 25 C
T3 construct: Coated on the plate in ELISA, biotinylated and captured in SPR
Protocol: (§1) Surface Plasmon Resonance (SPR) assay: Affinity analysis was performed by single cycle kinetics analysis on a Surface Plasmon Resonance apparatus (Biacore T200 system, GE Life Sciences) at 25° C. Biotinylated SIRP antigens were captured on the surface of a chip suitable for biotinylated molecules (Sensor Chip CAP, GE Life Sciences) by injecting 5 μg/ml of the SIRP antigen in running buffer (10 mM HEPES buffer at pH 7.4 with 150 mM NaCl, 3 mM EDTA and 0.005% v/v polyoxyethylene (20) sorbitan monolaurate (Surfactant P20) for 60 sec at 10 μL/min after injection of a streptavidin conjugate (20× diluted biotin CAPture reagent, GE Life Sciences) for 60 sec at 10 μl/min. Baseline stabilization was set at 1 min after which five increasing concentrations of an anti-SIRP antibody in running buffer (10 mM HEPES buffer at pH 7.4 with 150 mM NaCl, 3 mM EDTA and 0.005% v/v polyoxyethylene (20) sorbitan monolaurate) were injected. For each step an association time of 150 sec was used, followed by a dissociation time of 1200 sec at the highest concentration only, all at a flow rate of 30 μL/min. Regeneration was performed with 6 M guanidine-HCl, 0.25 M NaOH solution (60 sec with flow rate of 30 μL/min). Double blank subtraction was performed on the observed sensorgrams using a non anti-SIRP (blank) immobilized reference flow channel and running buffer injection. Sensorgrams were fitted with a 1:1 Langmuir model for all tested anti-SIRP antibodies. The kinetic parameters (kₐ, kd and KD) were calculated using the Biacore T200 evaluation software (v3.1).

[2] = target: T4, human SIRPα1 (huSIRPα1), protein antigen (human, UniProt P78324 31-370, limits assumed, biotinylated in the SPR assay); experiment: SPR, biotinylated antigen captured, 25 C
T4 construct: Coated on the plate in ELISA, biotinylated and captured in SPR; also called v2
Protocol: as §1

[3] = target: human SIRPαBIT (huSIRPαBIT), protein antigen (human) (UniProt P78324); experiment: SPR, biotinylated antigen captured, 25 C
[4] = target: human SIRPαBIT expressed on cells (human) (UniProt P78324); experiment: flow cytometry, U937 cells
[5] = target: human SIRPαBIT expressed on cells (human) (UniProt P78324); experiment: flow cytometry, ExpiCHO-S cells
[6] = target: T1, cynomolgus SIRPα expressed on cells; experiment: flow cytometry, ExpiCHO-S cells
From the text: (§2) Flow Cytometry: U937 cells endogenously expressing human SIRPαBIT antigen and cells derived from a non-engineered subclone that has been screened and isolated from CHO-S Chinese hamster ovary cells (ExpiCHO-S) cells expressing human SIRPα₁, SIRPαBIT or cySIRPα antigen (100,000 cells/well in a 96-well plate) were washed three times with ice-cold FACS buffer (1×PBS (LONZA) containing 0.2% v/w BSA (Sigma-Aldrich, St. Louis, Mo.) and 0.02% v/w NaN₃ (Sigma-Aldrich), followed by the addition of a concentration range of each primary mAb (50 μL/well) diluted in ice-cold FACS buffer. After an incubation time of 30 min at 4° C., the cells were washed three times with ice-cold FACS buffer and 50 μL/well secondary mAb (AffiniPure F(ab′)₂ fragment Goat-anti-human IgG-APC, 1:6,000 dilution, Jackson Immuno Research) was added. After 30 min at 4° C., cells were washed twice and resuspended in 150 μL FACS buffer. Fluorescence intensities were determined by flow cytometry (BD FACSVerse, Franklin Lakes, N.J.) and indicated as the median fluorescence intensity (MFI-Median) for U937 cells and ExpiCHO-S cells. Curves were fitted by nonlinear regression using the sigmoidal dose-response equation with variable slope (four parameters) in GraphPad Prism (version 7.02 for Windows, GraphPad, San Diego, Calif.). EC₅₀ values were calculated as the concentration in μg/mL that gives a response half way between bottom and top of the curve, when using a 4-parameter logistic fit.

[7] = target: human SIRPβ1v1 (huSIRPβ1v1) (human) (UniProt O00241); experiment: ELISA, antigen coated
[8] = target: human SIRPαBIT (huSIRPαBIT), protein antigen (human) (UniProt P78324); experiment: ELISA, antigen coated
[9] = target: T5, human SIRPβ1v2 (huSIRPβ1v2) (human, UniProt Q5TFQ8 30-371); experiment: ELISA, antigen coated
T5 construct: Coated on the plate in ELISA; Only the Ensembl protein number is printed; also called huSIRPß1v2
Protocol: (§3) ELISA assay: Solutions of huSIRPα₁, huSIRPαBIT, huSIRPβ₁ᵥ₁, huSIRPβ₁ᵥ₂, huSIRPγ and cySIRPα in phosphate buffered saline (PBS) were each added to a multiple well black polystyrene plate for ELISA and allowed to adhere for 1 h at RT. Unbound protein was removed with three washing steps using standard washing buffer. Subsequently, blocking buffer was added to the wells. After 1 h incubation at RT, the wells were washed three times with standard washing buffer. The antibodies in buffer at various concentrations were added to the wells and incubated at RT for 1 h. Unbound antibodies were removed with three washing steps using standard washing buffer. Goat anti human IgG (Fab′)₂:horse radish peroxidase (HRP) in buffer was added to the wells and incubated at RT for 1 h. 3,3′,5,5′-Tetramethylbenzidine (TMB) was added and after sufficient colour development HCl was added. Absorbance was read at 450 nm/620 nm.

human SIRPγ (huSIRPγ) [10] = target: T3, human SIRPγ (huSIRPγ); experiment: ELISA, antigen coated
Protocol: as §3

[11] = target: T2, cynomolgus SIRPα (cySIRPα), protein …; experiment: ELISA, antigen coated
Protocol: as §3

[12] = target: T6, human SIRPα1 expressed on cells (human, UniProt P78324 31-504); experiment: flow cytometry, ExpiCHO-S cells
T6 construct: whole, on cells; also called ExpiCHO-S (huSIRPα1); CHO cells expressing huSIRPα1
From the text: as §2

[13] = target: T4, human SIRPα1 (huSIRPα1), protein antigen; experiment: ELISA, antigen coated
Protocol: as §3

T3 sequence (Q9P1W8 29-360 limits assumed): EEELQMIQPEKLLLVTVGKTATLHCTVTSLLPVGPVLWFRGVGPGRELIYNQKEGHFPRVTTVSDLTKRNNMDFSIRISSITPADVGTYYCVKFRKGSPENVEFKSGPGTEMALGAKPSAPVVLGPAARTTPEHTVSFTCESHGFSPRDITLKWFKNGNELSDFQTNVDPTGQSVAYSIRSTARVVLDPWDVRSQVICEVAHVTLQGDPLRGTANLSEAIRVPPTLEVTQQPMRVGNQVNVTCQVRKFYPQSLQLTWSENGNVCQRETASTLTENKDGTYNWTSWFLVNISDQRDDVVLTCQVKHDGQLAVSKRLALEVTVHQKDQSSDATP
human SIRPαBIT (huSIRPαBIT), protein antigen (human), sequence (P78324 31-370): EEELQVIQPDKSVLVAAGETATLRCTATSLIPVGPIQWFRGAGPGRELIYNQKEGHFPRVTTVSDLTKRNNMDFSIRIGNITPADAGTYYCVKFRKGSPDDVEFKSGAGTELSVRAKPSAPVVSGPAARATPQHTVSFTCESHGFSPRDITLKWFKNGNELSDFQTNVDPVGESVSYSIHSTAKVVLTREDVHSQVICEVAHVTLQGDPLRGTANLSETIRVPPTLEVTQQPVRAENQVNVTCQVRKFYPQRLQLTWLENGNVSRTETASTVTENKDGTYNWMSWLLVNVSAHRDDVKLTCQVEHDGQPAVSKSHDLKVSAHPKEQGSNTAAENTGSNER
T4 sequence (P78324 other isoform, or with tags, fused parts or gaps limits assumed): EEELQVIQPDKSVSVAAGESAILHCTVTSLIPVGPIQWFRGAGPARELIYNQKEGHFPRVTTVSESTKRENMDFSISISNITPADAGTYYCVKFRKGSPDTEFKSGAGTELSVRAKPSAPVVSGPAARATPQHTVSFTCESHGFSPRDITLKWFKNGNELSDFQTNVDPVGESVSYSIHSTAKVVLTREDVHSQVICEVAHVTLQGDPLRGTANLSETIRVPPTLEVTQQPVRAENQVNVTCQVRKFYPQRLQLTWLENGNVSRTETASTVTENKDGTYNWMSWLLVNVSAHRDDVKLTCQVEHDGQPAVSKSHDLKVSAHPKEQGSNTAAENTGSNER
T6 sequence (P78324 other isoform, or with tags, fused parts or gaps limits assumed): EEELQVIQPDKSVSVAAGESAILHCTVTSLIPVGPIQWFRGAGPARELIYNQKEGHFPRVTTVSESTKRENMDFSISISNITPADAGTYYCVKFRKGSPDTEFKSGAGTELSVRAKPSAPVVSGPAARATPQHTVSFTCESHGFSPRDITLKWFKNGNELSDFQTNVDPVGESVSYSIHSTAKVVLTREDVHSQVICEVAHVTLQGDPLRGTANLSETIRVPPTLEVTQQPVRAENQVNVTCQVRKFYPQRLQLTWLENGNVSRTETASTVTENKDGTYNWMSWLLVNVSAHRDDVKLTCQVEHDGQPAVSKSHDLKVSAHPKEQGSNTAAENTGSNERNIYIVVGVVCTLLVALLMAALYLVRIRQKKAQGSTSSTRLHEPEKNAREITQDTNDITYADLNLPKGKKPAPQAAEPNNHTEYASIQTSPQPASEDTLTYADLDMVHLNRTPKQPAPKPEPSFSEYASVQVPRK
human SIRPβ1v1 (huSIRPβ1v1) (human), sequence (O00241 30-371): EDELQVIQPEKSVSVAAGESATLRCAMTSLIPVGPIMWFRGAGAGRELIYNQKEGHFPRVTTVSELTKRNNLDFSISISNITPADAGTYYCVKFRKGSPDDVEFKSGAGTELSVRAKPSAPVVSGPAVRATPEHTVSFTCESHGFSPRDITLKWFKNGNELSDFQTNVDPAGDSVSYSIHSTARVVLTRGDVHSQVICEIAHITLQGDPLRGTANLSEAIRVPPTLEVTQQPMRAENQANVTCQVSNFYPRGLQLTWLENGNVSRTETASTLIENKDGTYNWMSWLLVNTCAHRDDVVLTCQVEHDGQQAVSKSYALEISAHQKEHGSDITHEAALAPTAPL
human SIRPαBIT expressed on cells (human), sequence (P78324 31-504): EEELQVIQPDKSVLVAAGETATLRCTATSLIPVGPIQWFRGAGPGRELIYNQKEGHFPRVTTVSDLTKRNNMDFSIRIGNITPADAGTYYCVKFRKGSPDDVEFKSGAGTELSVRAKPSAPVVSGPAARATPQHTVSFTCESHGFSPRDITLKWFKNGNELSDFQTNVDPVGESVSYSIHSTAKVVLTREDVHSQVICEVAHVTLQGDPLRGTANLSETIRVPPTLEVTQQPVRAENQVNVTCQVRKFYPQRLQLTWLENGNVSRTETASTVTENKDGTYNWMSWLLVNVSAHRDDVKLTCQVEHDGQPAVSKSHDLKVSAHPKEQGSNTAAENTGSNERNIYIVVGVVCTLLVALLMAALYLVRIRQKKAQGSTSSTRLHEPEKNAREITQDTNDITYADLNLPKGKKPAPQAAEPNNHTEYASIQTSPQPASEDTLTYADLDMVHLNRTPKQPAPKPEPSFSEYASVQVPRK
T5 sequence (Q5TFQ8 30-371 limits assumed): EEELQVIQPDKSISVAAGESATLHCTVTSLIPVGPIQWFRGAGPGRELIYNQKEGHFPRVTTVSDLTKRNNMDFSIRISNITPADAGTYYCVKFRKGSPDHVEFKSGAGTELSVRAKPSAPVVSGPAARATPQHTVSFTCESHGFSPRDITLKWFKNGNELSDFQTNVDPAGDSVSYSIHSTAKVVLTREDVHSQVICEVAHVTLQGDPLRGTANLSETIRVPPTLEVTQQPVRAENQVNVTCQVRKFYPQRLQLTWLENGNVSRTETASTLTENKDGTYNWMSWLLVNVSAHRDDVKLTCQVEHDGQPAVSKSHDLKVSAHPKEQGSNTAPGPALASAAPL

Molecule | Kd (human SIRPγ (huSIRPγ) [1]) [pM] | Kd [2] [pM] | Kd [3] [pM] | EC50 [4] [µg/mL] | EC50 [5] [µg/mL] | EC50 [6] [µg/mL] | EC50 [7] [µg/mL] | EC50 [8] [µg/mL] | EC50 [9] [µg/mL] | EC50 (human SIRPγ (huSIRPγ) [10]) [µg/mL] | EC50 [11] [µg/mL] | EC50 [12] [µg/mL] | EC50 [13] [µg/mL]
SE5A5 (antibody) | 49000 | 2200 | 2600 |  |  |  |  |  |  |  |  |  | 
B1 | < 10 | 11 | < 10 | 0.09 |  |  |  |  |  |  |  |  | 
B2 | < 10 | < 10 | < 10 |  |  |  |  |  |  |  |  |  | 
B3 |  |  | < 10 | 0.17 | 0.21 | 0.07 | 0.014 | 0.02 | > 100 | > 100 | 0.335 |  | 
B4 |  |  |  | 0.14 | 0.27 | 0.16 | > 100 | 0.027 | 0.028 | > 100 | 0.038 | 0.19 | 0.033
B5 | 16 | 87 | 15 | 0.19 |  |  | 0.008 | 0.005 | 0.006 | 0.006 | 0.005 |  | 0.007
B6 |  |  |  | 0.16 | 0.22 | 0.26 | 3.52 | 0.021 | 0.11 | > 100 | 0.123 | 0.27 | 0.031
B7 |  |  |  | 0.12 | 0.18 | 0.15 | > 100 | 0.02 | 0.019 | > 100 | 0.026 | 0.22 | 0.019
